We go through 1 molecule from patent US11124779B2, “Compositions and methods for treating and preventing pancreatitis, renal injury and cancer” (Yale University, priority 2014, dated 2021).

Entries after “also recorded” stand apart in the source; their conditions may differ.

One experiment concerns the target T1, PMCA (Mus musculus, UniProt Q6Q477).
T1 sequence (Q6Q477 1-1205): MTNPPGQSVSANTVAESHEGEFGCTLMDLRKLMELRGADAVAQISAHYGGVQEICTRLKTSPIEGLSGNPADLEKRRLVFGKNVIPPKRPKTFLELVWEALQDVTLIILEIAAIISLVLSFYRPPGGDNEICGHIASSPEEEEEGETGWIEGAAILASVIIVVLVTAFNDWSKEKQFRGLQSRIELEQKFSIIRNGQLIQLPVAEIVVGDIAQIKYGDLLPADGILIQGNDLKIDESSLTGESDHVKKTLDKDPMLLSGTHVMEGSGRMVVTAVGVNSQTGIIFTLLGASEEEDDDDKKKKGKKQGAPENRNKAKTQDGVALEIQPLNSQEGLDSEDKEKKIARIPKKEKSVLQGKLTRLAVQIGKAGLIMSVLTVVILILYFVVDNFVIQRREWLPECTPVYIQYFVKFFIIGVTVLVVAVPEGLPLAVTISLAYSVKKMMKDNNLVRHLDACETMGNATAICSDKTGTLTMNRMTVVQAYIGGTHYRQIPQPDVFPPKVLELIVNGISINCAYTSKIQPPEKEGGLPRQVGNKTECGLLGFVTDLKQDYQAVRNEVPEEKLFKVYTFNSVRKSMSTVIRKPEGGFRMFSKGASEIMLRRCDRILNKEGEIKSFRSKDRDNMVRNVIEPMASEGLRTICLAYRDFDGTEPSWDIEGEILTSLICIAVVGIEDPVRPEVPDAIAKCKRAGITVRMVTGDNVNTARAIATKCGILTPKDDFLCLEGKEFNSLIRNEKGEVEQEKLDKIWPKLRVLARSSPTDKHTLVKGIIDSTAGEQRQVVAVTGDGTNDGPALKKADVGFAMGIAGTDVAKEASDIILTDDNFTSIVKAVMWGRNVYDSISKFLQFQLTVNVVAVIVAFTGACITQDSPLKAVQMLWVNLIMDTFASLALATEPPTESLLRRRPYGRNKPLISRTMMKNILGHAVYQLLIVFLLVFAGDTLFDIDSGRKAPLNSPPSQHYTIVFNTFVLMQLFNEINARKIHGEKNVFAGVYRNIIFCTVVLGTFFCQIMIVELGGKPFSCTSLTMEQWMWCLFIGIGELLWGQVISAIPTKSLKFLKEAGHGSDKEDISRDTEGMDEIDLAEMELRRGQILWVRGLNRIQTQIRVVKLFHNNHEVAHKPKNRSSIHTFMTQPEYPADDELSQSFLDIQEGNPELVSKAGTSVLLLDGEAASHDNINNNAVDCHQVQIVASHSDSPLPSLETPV
Description: Ca2+ efflux through PMCA, time lapse confocal microscopy, mouse acinar cells. The format is cell-based. As for the experimental part: FIGS. 12A-12F, depict the results of experiments showing renalase increases Ca^2+ efflux through PCMA. Changes in whole cell cytosolic Ca^2+ were recorded with the Ca^2+ dye Fluo-4 (HK2 cells) or Fluo-5 (acinar cell) by time lapse confocal microscopy. FIGS. 12A, 12B, 12D, and 12E are representative plots of fluorescence over time in HK2 cells (FIGS. 12A and 12B) or mouse acinar cells (FIGS. 12D and 12E). Cells were pretreated with 30 μM cyclopiazonic acid and perfused with Ca^2+-free medium. Cells were briefly stimulated with 10 nM angiotensin IV (Ang in HK2 cells) or 100 nM cerulein (Cer in acinar cells) in the presence of 1.3 mM Ca^2+. […] For FIGS. 12C and 12F, the rate of Ca^2+ efflux was quantified from 30 cells/treatment group. *p<0.05 vs. no renalase. […]
PMCA selectively binds renalase (FIG. 6). […] Since the protective effects of renalase were first characterized in HK-2 cells (human kidney cell line) (Lee et al., 2013, J Am Soc Nephrol 24, 445-455; Wang et al., 2014, Journal of the American Society of Nephrology: JASN), its effects on Ca^2+ signals were evaluated in these cells and subsequently in mouse acinar cells (FIG. 12). […] Perfusion buffer was then switched back to Ca^2+-free medium in the presence or absence of renalase, and cytosolic Ca^2+ levels were monitored over time and the rates of Ca^2+ efflux were calculated (FIG. 12). […]

In the next experiment the test system is mice. Particulars: literature (Lee et al., 2013; Wang et al., 2014); cited from earlier work.
In a further experiment the test system is ERK. Particulars: HK-2 cell, treatment alone; Wang et al., 2014; cited from earlier work.
A further experiment has as its system p38 MAPK. Particulars: HK-2 cell, treatment alone; Wang et al., 2014; cited from earlier work.

B1: recombinant renalase: recombinant full-length human renalase, secretory flavoprotein oxidase; synthesized as in Desir et al., 2012; SEQ ID NO: 8 or 9 (protein)
chain: ALLRRQTSGPLYLAVWDKAEDSGGRMTTACSPHNPQCTADLGAQYITCTPHYAKKHQRFYDELLAYGVLRPLSSPIEGMVMKEGDCNFVAPQGISSIIKHYLKESGAEVYFRHRVTQINLRDDKWEVSKQTGSPEQFDLIVLTMPVPEILQLQGDITTLISECQRQQLEAVSYSSRYALGLFYEAGTKIDVPWAGQYITSNPCIRFVSIDNKKRNIESSEIGPSLVIHTTVPFGVTYLEHSIEDVQELVFQQLENILPGLPQPIATKCQKWRHSQVTNAAANCPGQMTLHHKPFLACGGDGFTQSNFDGCITSALCVLEALKNYI
For B1, the “baseline Ca2+ levels” value with PMCA was “did not change”. The “rate of Ca2+ efflux” value with PMCA (100 nM cerulein, Ca2+-free medium, cyclopiazonic acid) is listed as “increased”. Also, the “ischemic acute kidney injury (AKI)” value in the experiment with mice is given as “significantly attenuates; also recorded: protects mice against ischemic AKI”. For the same molecule, the ERK phosphorylation result in the experiment with ERK was “rapidly increased”. The p38 phosphorylation entry with p38 MAPK is on record as “rapidly increased”.
